T1: PlGF (UniProt P49763-2 21-149, limits assumed)
T1 construct: bought antigen coated on the ELISA plate; also called Placental GF
T1 sequence (looked up): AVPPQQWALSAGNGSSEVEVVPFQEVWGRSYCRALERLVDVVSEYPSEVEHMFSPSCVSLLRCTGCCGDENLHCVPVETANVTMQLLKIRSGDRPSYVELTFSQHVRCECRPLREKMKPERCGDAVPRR

B1: DVD552 (bispecific antibody, human IgG1, kappa)
heavy: not shown
light: DIQMTQSPSSLSASVGDRVTITCRASQDVSTAVAWYQQKPGKAPKLLIYSASFLYSGVPSRFSGSGSGTDFTLTISSLQPEDFATYYCQQSYTTPPTFGQGTKVEIKRTVAAPSVFIFPPAIQMTQSSSSFSVSLGDRVTITCKASEDIYNRFAWYQQKPGNAPRLLISGAASLEAGVPSRFSGSGSGQDYTLSITSLQTEDVATYYCQQYWSTPWTFGGGTKLEIKRTVAAPSVFIFPPSDEQLKSGTASVVCLLNNFYPREAKVQWKVDNALQSGNSQESVTEQDSKDSTYSLSSTLTLSKADYEKHKVYACEVTHQGLSSPVTKSFNRGEC
notes: HC linker long, LC linker long; also called DVD-Ig DVD552
B2: DVD568 (bispecific antibody, human IgG1, kappa)
heavy: not shown
light: B1 light
notes: HC linker short, LC linker long; also called DVD-Ig DVD568
B3: DVD544 (bispecific antibody, human IgG1, kappa)
heavy: not shown
light: DIQMTQSPSSLSASVGDRVTITCRASQDVSTAVAWYQQKPGKAPKLLIYSASFLYSGVPSRFSGSGSGTDFTLTISSLQPEDFATYYCQQSYTTPPTFGQGTKVEIKRTVAAPAIQMTQSSSSFSVSLGDRVTITCKASEDIYNRFAWYQQKPGNAPRLLISGAASLEAGVPSRFSGSGSGQDYTLSITSLQTEDVATYYCQQYWSTPWTFGGGTKLEIKRTVAAPSVFIFPPSDEQLKSGTASVVCLLNNFYPREAKVQWKVDNALQSGNSQESVTEQDSKDSTYSLSSTLTLSKADYEKHKVYACEVTHQGLSSPVTKSFNRGEC
notes: HC linker short, LC linker short; also called DVD-Ig DVD544
B4: DVD560 (bispecific antibody, human IgG1, kappa)
heavy: not shown
light: B3 light
notes: HC linker long, LC linker short; also called DVD-Ig DVD560
B5: DVD542 (bispecific antibody, human IgG1, kappa)
heavy: not shown
light: DIQMTQSPSSLSASVGDRVTITCSASQDISNYLNWYQQKPGKAPKVLIYFTSSLHSGVPSRFSGSGSGTDFTLTISSLQPEDFATYYCQQYSTVPWTFGQGTKVEIKRTVAAPAIQMTQSSSSFSVSLGDRVTITCKASEDIYNRFAWYQQKPGNAPRLLISGAASLEAGVPSRFSGSGSGQDYTLSITSLQTEDVATYYCQQYWSTPWTFGGGTKLEIKRTVAAPSVFIFPPSDEQLKSGTASVVCLLNNFYPREAKVQWKVDNALQSGNSQESVTEQDSKDSTYSLSSTLTLSKADYEKHKVYACEVTHQGLSSPVTKSFNRGEC
notes: HC linker short, LC linker short; also called DVD-Ig DVD542
B6: DVD558 (bispecific antibody, human IgG1, kappa)
heavy: not shown
light: B5 light
notes: HC linker long, LC linker short; also called DVD-Ig DVD558
B7: DVD546 (bispecific antibody, human IgG1, kappa)
heavy: not shown
light: DIQMTQSPSSLSASVGDRVTITCRASQVIRRSLAWYQQKPGKAPKLLIYAASNLASGVPSRFSGSGSGTDFTLTISSLQPEDFATYYCQQSNTSPLTFGQGTKVEIKRTVAAPAIQMTQSSSSFSVSLGDRVTITCKASEDIYNRFAWYQQKPGNAPRLLISGAASLEAGVPSRFSGSGSGQDYTLSITSLQTEDVATYYCQQYWSTPWTFGGGTKLEIKRTVAAPSVFIFPPSDEQLKSGTASVVCLLNNFYPREAKVQWKVDNALQSGNSQESVTEQDSKDSTYSLSSTLTLSKADYEKHKVYACEVTHQGLSSPVTKSFNRGEC
notes: outer AB071 (VEGF), inner AB074 (PlGF); HC linker short, LC linker short; also called DVD-Ig DVD546
B8: DVD562 (bispecific antibody, human IgG1, kappa)
heavy: not shown
light: B7 light
notes: outer AB071 (VEGF), inner AB074 (PlGF); HC linker long, LC linker short; also called DVD-Ig DVD562
B9: DVD554 (bispecific antibody, human IgG1, kappa)
heavy: not shown
light: DIQMTQSPSSLSASVGDRVTITCRASQVIRRSLAWYQQKPGKAPKLLIYAASNLASGVPSRFSGSGSGTDFTLTISSLQPEDFATYYCQQSNTSPLTFGQGTKVEIKRTVAAPSVFIFPPAIQMTQSSSSFSVSLGDRVTITCKASEDIYNRFAWYQQKPGNAPRLLISGAASLEAGVPSRFSGSGSGQDYTLSITSLQTEDVATYYCQQYWSTPWTFGGGTKLEIKRTVAAPSVFIFPPSDEQLKSGTASVVCLLNNFYPREAKVQWKVDNALQSGNSQESVTEQDSKDSTYSLSSTLTLSKADYEKHKVYACEVTHQGLSSPVTKSFNRGEC
notes: outer AB071 (VEGF), inner AB074 (PlGF); HC linker long, LC linker long; also called DVD-Ig DVD554
B10: DVD570 (bispecific antibody, human IgG1, kappa)
heavy: not shown
light: B9 light
notes: outer AB071 (VEGF), inner AB074 (PlGF); HC linker short, LC linker long; also called DVD-Ig DVD570
B11: DVD566 (bispecific antibody, human IgG1, kappa)
heavy: not shown
light: DIQMTQSPSSLSASVGDRVTITCSASQDISNYLNWYQQKPGKAPKVLIYFTSSLHSGVPSRFSGSGSGTDFTLTISSLQPEDFATYYCQQYSTVPWTFGQGTKVEIKRTVAAPSVFIFPPAIQMTQSSSSFSVSLGDRVTITCKASEDIYNRFAWYQQKPGNAPRLLISGAASLEAGVPSRFSGSGSGQDYTLSITSLQTEDVATYYCQQYWSTPWTFGGGTKLEIKRTVAAPSVFIFPPSDEQLKSGTASVVCLLNNFYPREAKVQWKVDNALQSGNSQESVTEQDSKDSTYSLSSTLTLSKADYEKHKVYACEVTHQGLSSPVTKSFNRGEC
notes: HC linker short, LC linker long; also called DVD-Ig DVD566

The binders below were run against T2, VEGF (UniProt P15692 27-191, limits assumed) (assay: direct bind ELISA, N-terminal VD).
T2 construct: bought antigen coated on the ELISA plate
T2 sequence (P15692 other isoform, or with tags, fused parts or gaps limits assumed): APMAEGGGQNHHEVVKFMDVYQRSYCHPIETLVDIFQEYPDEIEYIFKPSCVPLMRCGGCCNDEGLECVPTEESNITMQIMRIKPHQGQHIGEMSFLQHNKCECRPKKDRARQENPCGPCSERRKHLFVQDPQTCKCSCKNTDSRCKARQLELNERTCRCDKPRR

Compared with B1, B2 is 100-fold lower in EC50: 314 nM for the first, 3.14 nM for the second. The second is the more potent here.

B3 and B4 are within 1.5-fold of each other in EC50: 2.35 nM for the first, 3.12 nM for the second.

Going from B5 to B6, the EC50 rises from 0.8 nM to 1.96 nM (2.4-fold).

B7 and B8 are within 1.5-fold of each other in EC50: 25.8 nM for the first, 17.7 nM for the second.

B9 and B10 are within 1.5-fold of each other in EC50: 15.2 nM for the first, 17.6 nM for the second.

With B11 the EC50 was 1.49 nM.

These binders were tested against T1, PlGF (assay: direct bind ELISA, C-terminal VD).
Procedure: Enzyme Linked Immunosorbent Assays to screen for antibodies that bind a desired target antigen were performed as follows. […] Plates were washed four times with PBS containing 0.02% Tween 20. Plates were blocked by the addition of 300 μL/well blocking solution (non-fat dry milk powder, various retail suppliers, diluted to 2% in PBS) for ½ hour at room temperature. Plates were washed four times after blocking with PBS containing 0.02% Tween 20.
Plates were washed 4 times with PBS containing 0.02% Tween 20.

First: B1
Second: B2
The EC50 of the first is 3-fold higher: 8.54 nM for the first, 2.84 nM for the second.

Going from B3 to B4, the EC50 falls from 13.8 nM to 2.53 nM (5.5-fold). The second is the more potent here.

Going from B5 to B6, the EC50 falls from 13 nM to 3.37 nM (3.9-fold).

Going from B7 to B8, the EC50 falls from 7.03 nM to 1.12 nM (6.3-fold). The second is the more potent here.

Compared with B9, B10 is 3.2-fold higher in EC50: 0.45 nM for the first, 1.44 nM for the second. The first is the more potent here.

For B11, the EC50 was 1.42 nM.

— patent US20100260668A1 (published 2010)
